Results published in paper PMC7595633 (PLoS Neglected Tropical Diseases, 2020).
Values joined by “and” are separate entries in the source; they are usually repeats but may differ in a detail not shown here. Identical values can stand only once.

B1: Trypanosoma brucei selenophosphate synthetase (TbSEPHS2), recombinant full-length (enzyme, UniProt Q38A34 1-393, looked up)
chain: MSEKEGKVIPETNGMKRPRFDPVKLGLPEEFTLTDYTRLKGCSCKVPQPELLALLQSVSTTPGRRDVGMDCSIVKLQHKDETGKPLYMVSTTDFFFPSVEDPYLQGQIGAANVLSDLYSTGIDRCDTVLMLLAASTDMDKTEREVCTQEMMKGFVDHVRLAGSDVTGGQTVMNPWPLIGGIATSVVAESQMIRPTGLQPGDILVLTKPLGCQIAVNLKQWLRRPSPIFEEQIQGKMDSEEIEELYNAAADGMKRLNRMAAALMHSHGAHGATDVTGFGILGHAKNLGSAQKADVCLVLDSLPMYRGAVKASKLMGDKYRLFEGYAAETSGGLLVAFGTREEAEGYIRELYETDGEPAWVVGRVVRREGSAPYALLQKDYKIIEVGAKVNDKII
notes: selenophosphate synthetase SEPHS2 of Trypanosoma brucei, Tb927.10.9410, 393 residues (from the limits of the truncated constructs); also called SPS2; TbSPSH2
B2: Leishmania major selenophosphate synthetase (LmSEPHS2), recombinant full-length (enzyme, UniProt Q4Q0M0 1-398, looked up)
chain: MSHKRPQSSAGESNGAVDLKTPRFDPVSLGLPAEFQLTDYTRLKGCSCKLPQPKLLALLQELSATPGQKDVGMDCSIVPLHHTNSKGEALFLVSTTDFFFPSVSDPFLQGQIGAANVLSDLYSMGIPDCDTMLMLLAASTEMDEHERLITTREIMKGFAERARLATTTVTGGQTVMNPWPLIGGVAMAVVSEAEMVRPTGLLCAGDILVLTKPLGCQVAVNLKQWLLRPSPLYEEAIAGHISPEEIEELYNMATDSMRRLNREGARLMRKHGAHGATDVTGFGILGHANNFGAAQAVGDAPRSLCLVLERLPMFKTAVAASKQMNDKYRLLEGYSAETSGGLLVAFPSTTAAAAFCAELTAVDGGCPSWIVGHVEDRATNAVDGVYARLKDGYEIVEV
notes: selenophosphate synthetase SEPHS2 of Leishmania major, LmjF.36.5410; also called LmSEPSH2
B3: ΔN(70)-TbSEPHS2, residues 71-393 (domain or fragment, Trypanosoma brucei, UniProt Q38A34 71-393, looked up)
chain: CSIVKLQHKDETGKPLYMVSTTDFFFPSVEDPYLQGQIGAANVLSDLYSTGIDRCDTVLMLLAASTDMDKTEREVCTQEMMKGFVDHVRLAGSDVTGGQTVMNPWPLIGGIATSVVAESQMIRPTGLQPGDILVLTKPLGCQIAVNLKQWLRRPSPIFEEQIQGKMDSEEIEELYNAAADGMKRLNRMAAALMHSHGAHGATDVTGFGILGHAKNLGSAQKADVCLVLDSLPMYRGAVKASKLMGDKYRLFEGYAAETSGGLLVAFGTREEAEGYIRELYETDGEPAWVVGRVVRREGSAPYALLQKDYKIIEVGAKVNDKII
notes: selenophosphate synthetase SEPHS2 of Trypanosoma brucei, Tb927.10.9410, residues 71-393; Cloned into pET20b with the printed oligonucleotides; also called ΔN(70)-SEPHS2
B4: ΔN(25)-TbSEPHS2, amino acid residues 26-393 (domain or fragment, Trypanosoma brucei, UniProt Q38A34 26-393, looked up)
chain: GLPEEFTLTDYTRLKGCSCKVPQPELLALLQSVSTTPGRRDVGMDCSIVKLQHKDETGKPLYMVSTTDFFFPSVEDPYLQGQIGAANVLSDLYSTGIDRCDTVLMLLAASTDMDKTEREVCTQEMMKGFVDHVRLAGSDVTGGQTVMNPWPLIGGIATSVVAESQMIRPTGLQPGDILVLTKPLGCQIAVNLKQWLRRPSPIFEEQIQGKMDSEEIEELYNAAADGMKRLNRMAAALMHSHGAHGATDVTGFGILGHAKNLGSAQKADVCLVLDSLPMYRGAVKASKLMGDKYRLFEGYAAETSGGLLVAFGTREEAEGYIRELYETDGEPAWVVGRVVRREGSAPYALLQKDYKIIEVGAKVNDKII
notes: selenophosphate synthetase SEPHS2 of Trypanosoma brucei, Tb927.10.9410, residues 26-393; Cloned into pET20b with the printed oligonucleotides
B5: ΔN(69)-LmSEPHS2, N-terminally truncated L. major selenophosphate synthetase (domain or fragment, Leishmania major, UniProt Q4Q0M0 70-398, looked up)
chain: DVGMDCSIVPLHHTNSKGEALFLVSTTDFFFPSVSDPFLQGQIGAANVLSDLYSMGIPDCDTMLMLLAASTEMDEHERLITTREIMKGFAERARLATTTVTGGQTVMNPWPLIGGVAMAVVSEAEMVRPTGLLCAGDILVLTKPLGCQVAVNLKQWLLRPSPLYEEAIAGHISPEEIEELYNMATDSMRRLNREGARLMRKHGAHGATDVTGFGILGHANNFGAAQAVGDAPRSLCLVLERLPMFKTAVAASKQMNDKYRLLEGYSAETSGGLLVAFPSTTAAAAFCAELTAVDGGCPSWIVGHVEDRATNAVDGVYARLKDGYEIVEV
notes: selenophosphate synthetase SEPHS2 of Leishmania major, LmjF.36.5410, lacking the 69-residue N-terminal region; also called ΔN-LmSEPHS2

Assays:
[1] = biological target: T1, Trypanosoma brucei selenocysteine lyase (TbSCLY), recombinant (Trypanosoma brucei, UniProt Q38DC4 1-451, pyridoxal-phosphate (PLP) bound to the active site); test: ITC
T1 chain: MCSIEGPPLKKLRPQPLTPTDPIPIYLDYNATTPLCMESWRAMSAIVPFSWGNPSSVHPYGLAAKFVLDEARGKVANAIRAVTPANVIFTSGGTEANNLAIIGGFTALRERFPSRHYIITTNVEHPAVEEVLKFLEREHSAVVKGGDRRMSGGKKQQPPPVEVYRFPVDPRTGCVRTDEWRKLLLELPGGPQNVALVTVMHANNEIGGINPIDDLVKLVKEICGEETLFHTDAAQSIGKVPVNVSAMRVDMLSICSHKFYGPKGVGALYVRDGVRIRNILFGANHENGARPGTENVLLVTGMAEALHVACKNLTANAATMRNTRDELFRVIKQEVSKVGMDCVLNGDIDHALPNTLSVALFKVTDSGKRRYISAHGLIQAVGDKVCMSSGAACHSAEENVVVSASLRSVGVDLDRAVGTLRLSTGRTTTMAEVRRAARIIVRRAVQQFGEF

[2] = biological target: the molecule itself; test: native gel or EMSA; PhastGel gradient 8-25%, room temperature; 1 mg/mL (methods), 2 mg/mL (legend of Fig 1D); Coomassie stained
[3] = biological target: the molecule itself; test: AUC; sedimentation equilibrium; tetramer to dimers; 0.5, 0.75 and 1.0 mg/mL; 8,000, 10,000 and 12,000 rpm, 4°C; global fit in SEDPHAT

Row | Binder | Kd [1] | stoichiometry N [2] | Kd [3]
1 | B1 | 5.2 µM | – | –
2 | B2 | – | 2 and 4 | 178 ± 10 µM
3 | B3 | – | 2 and 4 | –
4 | B4 | – | 2 and 4 | –
5 | B5 | – | 2 and 4 | –
